Assays:
H44L4 full-length IgG = target: T1, H44L4 full-length IgG; experiment: peptide ELISA (scheme of FIG. 8)
T1 construct: also called autoanti-GPIIb/IIIa

[1] = target: T2, GPIa/IIa on a stable K562 cell line (UniProt P17301 30-1181; P05556 21-798, limits assumed); experiment: flow cytometry on K562 cells expressing GPIa/IIa
T2 construct: whole, on cells; also called K562 cell line expressing GPIa/IIa

[2] = target: T3, GPIIb/IIIa on intact human platelets (human, UniProt P08514 32-1039; P05106 27-788); experiment: immunoprecipitation from biotinylated platelets; agrees with ELISA and Glanzmann platelet flow cytometry;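 also: precipitated biotin-labelled platelet membrane proteins visualized with biotinylated horseradish peroxidase-avidin complexes, scored for polypeptides behaving like GPIIb/IIIa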
T3 construct: whole, on cells; also called platelet GPIIb/IIIa; αIIbβ3
From the text: Precipitated, biotinylated platelet membrane proteins were detected with biotinylated horseradish peroxidase-avidin complexes (ABC Staining Kit, Pierce).

B1: P73-11 (peptide)
peptide: CLVPWMFHC
binding result (H44L4 full-length IgG): binds

B2: H10L122 (Fab, V domains shown)
VH: QVQLVQSGAEVKKPGASVKVSCKASGYSFSNYYMHWVRQAPGEGLEWMGIINPKGGTTSYAQKFQGRVTIAADKFTNSAYMEPSSLRYEDTAVYFCARAKFSWSPDIWGQGTVVTVSS
VL: QAVVTQEPSLTVSPGGTVTLTCDSSTGAVTSGHYPYWLQQKPGQAPRTLIYDTHNKHSWTPGRFSGSLLGGKAALTLSGAQPEDEAEYYCSLSYSAVWVFGGGTKLTVL
notes: Soluble Fab
binding result [1]: no binding | binding result [2]: no binding

B3: P74-3 (peptide)
peptide: CLIPWMFNC
binding result (H44L4 full-length IgG): binds

B4: H37L40 (Fab, V domains shown)
VH: QVQLVESGGGVVQPGRSLRLSCAASGFTFSNYAMHWVRQAPGKGLEWVAVISYDGSNKYYADSVKGRFTISRDNSKNTLYLQMNSLRPEDTAVYYCARGGVAAFDYWGQGTLVTVSS
VL: DIVMTQSPLSLSVSPGEPASISCRSSQSLLDSNGHNFLDWYLQKPGQSPQLLIFVGSYRALGVPDRFTGSGTGTDFTLKISRVEPEDVGVYYCMQGLQAPITFGQGTKLDIK
notes: Soluble Fab
binding result [1]: no binding | binding result [2]: no binding

B5: H38L76 (Fab, V domains shown)
VH: QVQLVESGGGVVQPGRSLRLSCAASGFTFSNYAMHWVRQAPGKGLEWVAVISYDGSNKYYADSVKGRFTISRDNSKNTLYLQMNSLRPEDTAVYYCARGGVGAFDYWGQGTLVTVSS
VL: not shown
notes: Soluble Fab
binding result [1]: no binding | binding result [2]: no binding

B6: H38L74 (Fab, V domains shown)
VH: QVQLVESGGGVVQPGRSLRLSCAASGFTFSNYAMHWVRQAPGKGLEWVAVISYDGSNKYYADSVKGRFTISRDNSKNTLYLQMNSLRPEDTAVYYCARGGVGAFDYWGQGTLVTVSS
VL: EIVLTQSPATLSLSPGERATLSCRASQSVSSYLAWYQQKPGQAPRLLIYDASNRATGIPARFSGSGSGTDFTLTISSLEPEDFAVYYCQQRSNWPTFGGGTKVEIK
notes: Soluble Fab
binding result [1]: no binding | binding result [2]: no binding

B7: H38L72 (Fab, V domains shown)
VH: QVQLVESGGGVVQPGRSLRLSCAASGFTFSNYAMHWVRQAPGKGLEWVAVISYDGSNKYYADSVKGRFTISRDNSKNTLYLQMNSLRPEDTAVYYCARGGVGAFDYWGQGTLVTVSS
VL: EIVLTQSPATLSVSPGERATLSCRASQSVSSYLAWYQQKPGQAPRLLIYDASNRATGIPARFSGSGSGTDFTLTISSLEPEDFAVYYCQQRSNWPLTFGQGTKVEIK
notes: Soluble Fab
binding result [1]: no binding | binding result [2]: no binding

B8: H38L55 (Fab, V domains shown)
VH: QVQLVESGGGVVQPGRSLRLSCAASGFTFSNYAMHWVRQAPGKGLEWVAVISYDGSNKYYADSVKGRFTISRDNSKNTLYLQMNSLRPEDTAVYYCARGGVGAFDYWGQGTLVTVSS
VL: DIVMTQSPLSLPVTPGEPASISCRSNQSVLHSNGRHYLDWYLQKPGQSPQLLIYMVFNRASGVPDRFSGSGSGTDFTLKISRVESEDVGVYYCMQAQQTPVTFGQGTRLDIK
notes: Soluble Fab
binding result [1]: no binding | binding result [2]: no binding

B9: H38L49 (Fab, V domains shown)
VH: QVQLVESGGGVVQPGRSLRLSCAASGFTFSNYAMHWVRQAPGKGLEWVAVISYDGSNKYYADSVKGRFTISRDNSKNTLYLQMNSLRPEDTAVYYCARGGVGAFDYWGQGTLVTVSS
VL: not shown
notes: Soluble Fab
binding result [1]: no binding | binding result [2]: no binding

B10: H37L92 (Fab, V domains shown)
VH: QVQLVESGGGVVQPGRSLRLSCAASGFTFSNYAMHWVRQAPGKGLEWVAVISYDGSNKYYADSVKGRFTISRDNSKNTLYLQMNSLRPEDTAVYYCARGGVAAFDYWGQGTLVTVSS
VL: QSALTQPASVSGSPGQSITISCTGTSSDVGGYKYVSWYQQHPGKAPKLIIYDVTNRPSGVSKRFSGSKSGNTASLTISGLQAEDEADYYCSSYTSRSTPVFGGGTKVTVL
notes: Soluble Fab
binding result [1]: no binding | binding result [2]: no binding

B11: H37L50 (Fab, V domains shown)
VH: QVQLVESGGGVVQPGRSLRLSCAASGFTFSNYAMHWVRQAPGKGLEWVAVISYDGSNKYYADSVKGRFTISRDNSKNTLYLQMNSLRPEDTAVYYCARGGVAAFDYWGQGTLVTVSS
VL: not shown
notes: Soluble Fab, clone B
binding result [1]: no binding | binding result [2]: no binding

B12: H36L76 (Fab, V domains shown)
VH: QVQLVESGGGVVQPGRSLRLSCAASGFTFSSYAMHWVRQAPGKGLEWVAVISYDGSNKYYADSVKGRFTISRDNSKNTLYLQMNSLRPEDTAVYYCARGGVAAFDYWGQGTLVTVSS
VL: not shown
notes: Soluble Fab, clone B
binding result [1]: no binding | binding result [2]: no binding

B13: H38L75 (Fab, V domains shown)
VH: QVQLVESGGGVVQPGRSLRLSCAASGFTFSNYAMHWVRQAPGKGLEWVAVISYDGSNKYYADSVKGRFTISRDNSKNTLYLQMNSLRPEDTAVYYCARGGVGAFDYWGQGTLVTVSS
VL: EIVLTQSPATLSLSPGERATLSCRASQSVRSFLAWYQQKPGQAPRLLIYDTSKRPTGIPDRFSGSGSGTDFTLTISSLEPEDFAVYYCQQRSSWPLTFGGGTTVEIK
notes: Soluble Fab
binding result [1]: no binding | binding result [2]: no binding

B14: P73-9 (peptide)
peptide: CIIPFMFQC
binding result (H44L4 full-length IgG): binds

B15: P73-10 (peptide)
peptide: CTHWWRPAC
binding result (H44L4 full-length IgG): binds

B16: H45L61 (Fab, V domains shown)
VH: QVQLVESGGGVVQPGRSLRLSCAASGFTFSNFNMHWVRQAPGKGLEWVALISYDGSSKYYTDSVKGRFTISRDNSKNTLYLQMNSLRPEDTAVYYCMVVGAFDYWGQGTLVTVSS
VL: EIVLTQSPGTLSLSPGERATLSCRASQSVGSSYLAWYQQKPGQAPRLLIYGVSSRATGIPDRFSGSGSGTDFTLTISRLEPEDFAVYYCQQYGGSPLTFGGGTTVEIK
notes: Soluble Fab, clone A
binding result [1]: no binding | binding result [2]: no binding

B17: H47L63 (Fab, V domains shown)
VH: QVQLVESGGGVVQPGRSLRLSCATSGFTFSNFNMHWVRQAPGKGLEWVALISYDGSNKNYANSVKGRFTISRDNSKNTLFLQMNSLRVEDTAVYYCMVVGAFDYWGQGTLVTVSS
VL: EIVLTQSPGTLSLSPGERATLSCRASQSVGNNYLAWYQQRPGRAPRLVMYDPSSRATGIPDRFSGSGSGTDFTLTISRLEPEDFAVYYCQQYGNSPPTFGGGTKVEIK
notes: Soluble Fab, clone A
binding result [1]: no binding | binding result [2]: no binding

B18: H47L64 (Fab, V domains shown)
VH: QVQLVESGGGVVQPGRSLRLSCATSGFTFSNFNMHWVRQAPGKGLEWVALISYDGSNKNYANSVKGRFTISRDNSKNTLFLQMNSLRVEDTAVYYCMVVGAFDYWGQGTLVTVSS
VL: EIVLTQSPDTLSLSPGDRATLSCRASQSVSNYLAWYQQKAGRAPSLLIYGTSRRATDIPDRFSGSGSGTDFTLTISRLEPEDSAVYYCQQYGSASLTFGGGTKVEIK
notes: Soluble Fab, clone A; also called putative GPIb/IX-specific Fab
binding result [1]: no binding | binding result [2]: no binding

B19: P124-8 (peptide)
peptide: KHSMPINAILPP
binding result (H44L4 full-length IgG): binds

B20: H39L44 (Fab, V domains shown)
VH: QVQLVESGGGVVQPGRSLRLSCAASGFTFSNYAMHWVRQAPGKGLEWVAVISYDGSNKYYADSVKGRFTISRDNSKNTLYLQMNSLRPEDTAVYYCARGGVAAFDYWGQGTLVTV
VL: DIVMTQSPVSLAVTPGEPASISCRSSQSLLHSNGYNYLDWYLQKPGQSPQLLIYLGSTRASGVPDRFSGSGSGTDFTLKINRVEAEDVGVYYCMQALQSPFTFGGGTKVEIK
notes: Soluble Fab
binding result [1]: no binding | binding result [2]: no binding

B21: H39L46 (Fab, V domains shown)
VH: QVQLVESGGGVVQPGRSLRLSCAASGFTFSNYAMHWVRQAPGKGLEWVAVISYDGSNKYYADSVKGRFTISRDNSKNTLYLQMNSLRPEDTAVYYCARGGVAAFDYWGQGTLVTV
VL: DIVMTQSPLSLPVTPGEPASISCRSSQSLLHSNGNNYLDWYLQKPGQSPQLLIYLASNRASGVPDRFSGSGSGTDFTLKISRVEPEDVGLYYCMQALQTPLTFGGGSKVEIK
notes: Soluble Fab
binding result [1]: no binding | binding result [2]: no binding

B22: P3-4 (peptide)
peptide: CPSLAHRWC
notes: From the Cys-7-mer-Cys constrained phage library; also called C7C constrained peptide
binding result (H44L4 full-length IgG): binds

B23: P123-10 (peptide)
peptide: WSLHTLGLPFVF
binding result (H44L4 full-length IgG): binds

B24: P4-2a (peptide)
peptide: CIVPWFFHC
notes: as for B22
binding result (H44L4 full-length IgG): binds

B25: P74-4 (peptide)
peptide: CVVPWFFHC
binding result (H44L4 full-length IgG): binds

B26: P123-11 (peptide)
peptide: LPFDTIIKPWPV
binding result (H44L4 full-length IgG): binds

B27: P4-7 (peptide)
peptide: FPLNTIIHSAVY
notes: From the 12-mer linear phage library; also called 12-mer linear peptide
binding result (H44L4 full-length IgG): binds

B28: H29L104 (Fab, V domains shown)
VH: EVQLVESGGGLVKPGGSLRLSCAASGFTFSSYSMNWVRQAPGKGLEWVSSISSSSSYIYYADSVKGRFTISRDNAKNSLYLQMNSLRAEDTAVYYCARDHPNYYDSSGLFDYWGQGTLVTVSS
VL: SSELTQDPAVSVALGQTVRITCQGDSLRSYYASWYQQKPGQAPVLVIYGKNYRPSGIPDRFSGSSSGNTASLTITGAQAEDEADYYCNSRDSSGNHWVFGGGTKLTVL
notes: Soluble Fab
binding result [1]: no binding | binding result [2]: no binding

B29: P4-12 (peptide)
peptide: DLRLNSLIVPWS
notes: as for B27
binding result (H44L4 full-length IgG): binds

B30: P74-5 (peptide)
peptide: CVTSKPHTC
binding result (H44L4 full-length IgG): binds

B31: P74-9 (peptide)
peptide: CTWLPYPYC
binding result (H44L4 full-length IgG): binds
